According to the DeepSol protein solubility set:

Assay: soluble on expression in E. coli; label from the status in PepcDB or PDB records
With “MDVSMLQSPQKRIKTIQKLAVSKKDVHDFKDIFEMLEEQKEKRNINIIQYDSLDDLSGDWSEYTFFCGNFDSDLFRTLTKHQETQALFIIGASVLKNKLLKNEDLMTLRAARPLYCELMKDVTMKLAAEVPNKRELVDLVHYMGGSVRKDTVSRTNVFIAAKVEAKVQSISLVGVPTMRADWVTECWKHRDDSYFDVMEPCFVDKHRLGVFEGLSLFFHGFKQTEIDDMLRSLENTGGKLAPSPTLATHVVYNPDNDEVETLAVSSNQVHVTKEWFWVSLHRGCCAIEDNFALPTGKLHRKPLESSSVSSPIGKSLRSQNSRSLSSMRDCSVEGPTSLNMTPDYIYSNDDVENSCKSPRQPSKRLRVCMEMVETEKNYLSLLKLVVKFKEALECEISHNEFMSRSDVAMMFGKLDPILELHERIFARLTVMSNEANTLLTVVNGKKNDDKNLDFAQVWIDAKEEMKKAYPQYINSYDTIKRLFDKQDRENSKFHTFCKAKESNPEFHRLKLTDLMVKPVQRLPSVILLLKEMAKKSDSKLKNNAEEAAKAIDEVLKTANKTREKNDNFISHLSKFTDIENVPPILVAANRMFIRELVVSPIASTSPGLQQFAKMKLFLFHDVLIITKIRSEKNTMQRLARHASFASLHSRQRRPYRYIDQIQLNTMRSAFRIRAPDEIAKCLELQQQNGSTKPNVFVWCLIHRDEQGGDIDTVFESNDDEEVRDFLDDIHVKILSDCGRFFYSSDPSDMNEINDAMVSDMTTRYFRNLCGAKPQYGHGSQMNITEWSHNESFMPPPQSQSRMRRAFSNAQLTLATTLGFGRNQSRNNLGQINENTTFLQSPRVSCDPAALANMTSVGGLPGCQSESESTPKRGIRSRLTSTTFLGGRHNILGRNTSMRRQATGFAHSEKELPRSKTSSYRVTDI” the “soluble on expression in E. coli” value was “not soluble”. In the case of “MAGSGVAKQIFALDFEIFGRVQGVFFRKHTSHEAKRLGVRGWCMNTRDGTVKGQLEAPMMNLMEMKHWLENNRIPNAKVSKAEFSQIQEIEDYTFTSFDIKH”, the “soluble on expression in E. coli” value is reported as “soluble”. With “MGSDKIHHHHHHMSKFINPFTDYGFKLIFGREVSKDLLIEFLNDLLEGERVITDLTFLNNEQLPDYPEGRGIIYDVYCTTDTGEKIIVEMQNRMQSNFKERSIFYLSRAIVNQGRTGHDWKFEIKAVYGVFLMNFIMDKNIKLRTDVILADKETGELFSEKFRQIFIALPLFKKSEEECETNFERWIYILNNMETLKRLPFKARKAVFEKLEEIADVASMSPKERELYDNSVKVYRDYLVTMDAAEKEGIKKGMKEGMKEGLKKGLEEGLEEGLKKGREEALNIFQTAIDMKKQGIDNQLIAEKTGLPLSLIESLK” the “soluble on expression in E. coli” value was “not soluble”. In the case of “MSTHASAHGSTHTSTHHPIAVIGAGLGGLAAARVLHVHGIEAAVYEADASPTARHQGGMLDIHGESGQAALRAAGLYEEFRAIVHPGGEATRILDKDGTVRHEEGDRPEEGDRPEVDRNDLRRILLDSLPEGTIRWGAKVTGARALGGGRHEVTLADGSVFTTDVLIGADGAWSRIRPLLSPATPAYTGISFVEADLHEAATRHRAAAELVGGGSMFALAEGKGILTHLETDGSVHAYVALKADEDWLSTIDFTGTDTDTAKKTLLTHFEDWDDRLRALITDADGALVPRLIHALPVDHRWERTAGVTLLGDAAHLMSPFAGEGANLALLDGAELATALAAHPADPESALTAYERSLFPRSHRAAGESAANLTFMFGPNALEELVGMMSGHEPSDRLEHHHHHH”, the “soluble on expression in E. coli” value is reported as “soluble”. In the case of “TTFFGRETAFFNGTEKLGRKFSLPVVYMDVEKTGHDVFTGTIKLLHHPQDDSPEGSITEEYVRLMETTIRRDPSQWLWSHRRWKRPRLHNTRQL”, the “soluble on expression in E. coli” value is reported as “not soluble”. For “MGSDKIHHHHHHMMGEFEAIRPYSDAEVPAVLQRLLSDDAFLGALVRYRFPRLAGPLGWLLKPLIAHRLAREVTGIRSVATLQDKFEPYVDHTIEKATDGVTYSGVNRLKPGCAYLFIANHRDIVMDPAFVNYAVYHAGLPTPRIAIGDNLLQKSFVSDLMRLNKSFIVHRSLSGRREKLAAYQTLSAYINHSIREDRQSVWIAQAEGRAKDGDDRTDSAILKMFHMSRKDEPFAEMVRALHFIPVSISYEYDPCDLAKARELHTRASTGEYRKAPGEDDASIALGITGYKGRVHINFGAELEGEFSDAKQLAAELDRQILGNYRLFPVHYLAYEMSENRDPGLAVPTAESLFGSEELEKARKEWNRRLEQCPAEQRSWLVLQYANPVLNQYRIKQQS”, the “soluble on expression in E. coli” value was “not soluble”. With “MTTDSLSQIDTDQDEYGEEIEMASNSLGNLPDVVLQHLAPFLQWSTCRALSEVNLRFRSHFKQHLKEGQALSIKGQVSVGVGDRVNDCQNVSFLSEFYTIRVEMDDNMVVDWTLKLQSGVRTVVHRHYDGNTQTTTTKSVHLSSRDYLEKVLKWILARYQFKKIHLGVQGLAPLFSSYKGEIENVGISDEIEYLKLAEKFRPKHLTLFKPAQNTYNKGFFDLKKFPQLEELRMYGVPLDLDQLIESNISEVAADTIDKDIKLKHVRKIINNWKNGIINYKSIMISPSCSQFGIYCPHNQWSELTDHLVEANALYDNVVNIKEKIGSARYSPRSFEFEVWEADRY” the “soluble on expression in E. coli” value was “not soluble”. With “MGSDKIHHHHHHMGKLCSFLEKHKRSFPIGLSGNTGMGYILTGGISPLSRSKGLAIDQIIEIKGFWGNGKEFHLLRPNTKNELTNEWKALCGAAIFLGIITQVKLKTQPLRPLLSWTANLSFSELSECINQAESWPNSLSLQWIYGDDIFAHAIGEIKNTDDESVMIKLLEKLPFSRNRIINKFNNMKSLPNLSFGNNNNYNNSNHSEVLGLLGPAWQEKNKQVLKILKELINKRPNKSCYIASQQLGGLTHLNDLDTSFIHRDAIWKPWINGAWEAHNQAKRKRTLEWMTECWNNLEFICPGVHLAQIHPHLEWHKKELSSAFEDWLPNLEELKAIHDPRNIMPPLK” the “soluble on expression in E. coli” value was “not soluble”. For “MPALEFFKDKERGVLDPKVFERAREVAEGLARGKLKSSQFRNYFAELRALENRFERERRKEGEELAFARLVPQLELLRAKLFYNTRSQGPLRDAKEFVEFMEEALEAGKRSPKDFEAMMKYVEAVLAYFYALAK”, the “soluble on expression in E. coli” value was “soluble”. With “MADDVDNDDKLEKPVDLIWGCELNEQNKTFEFKVEDDEEKCEHQLALRTVCLGDKAKDEFHIVEIVDQEEGAEKVVPIATLKPSILPMATMVGIELDPPVTFRLKAGSGPLYISGQHVAM” the “soluble on expression in E. coli” value was “soluble”. In the case of “MSKDYRSLANLSPFELKDELIKVASGKANRLMLNAGRGNPNFLATTPRRAFFRLGLFAAAESELSYSYMTVGVGGLAKLDGIEGRFERFIAEHRDQEGVKFLGKSLSYVRDQLGLDPAAFLHEMVDGILGCNYPVPPRMLTVSEQIVRQYIVREMAGGAVPPESVDLFAVEGGTAAMAYIFESLRISGLLKAGDKVAIGMPVFTPYIEIPELAQYDLKEVPIHADPDNGWQYSDAELDKLKDPDVKIFFCVNPSNPPSVKMDQRSLDRVRAIVAEQRPDLLILTDDVYGTFADEFQSLFSVCPRNTLLVYSFSKYFGATGWRLGVIAAHKDNVFDHALSQLPESAKKALDHRYRSLLPDVRSLKFIDRLVADSRVVALNHTAGLSTPQQVQMVLFSLFALMDEADAYKQALKQLIRRREATLYRELGMPPLENPNSVNYYTLIDLQNVTCRLYGEAFSQWAVQQSSTGDMLFRVADETGIVLLPGRGFGSDRPSGRASLANLNEYEYAAIGRALRRLADELYEQYKALGKEKLAAALEHHHHHH”, the “soluble on expression in E. coli” value is reported as “soluble”. In the case of “MIIMEKGVVSDSYEVAIARNPHLAEYLSKYRNETGRSPSFLVNIDSSLKSLAHVDVIYPVGDPIFIHIYERGKERRYKPIEPLLKDDEFEFMDAILDIIMSRASDYPPAENEEEQEKNIEDVYKKTVSVGSNKIKRNSVTLEKPLYDKMLYNVKKEIIGLGPLEPLIRDSHIEDISGIGPEDVYIVHKIFGSMPTDITFGSMERLMRFSKRLSERVGRPVSDKRPIVDATLPDGSRLSIVYSTDISQRGPSFTIRKFSEIPLSILNLIKYNTMSYEEAAYLWLALEYGQSVFVCGETASGKTTVVNAIIPFIRPESKIFSAEDTPEIRAPQKAWQQLVTRESGAEESRVTLYDLLRTALRSRPNYIIVGEIRGAEGAMAFQAMQTGHPVISTFHASSVKKMIQRFTGNPINIPVTFMDNLNIVLIQQAVYVGGKFLRRTTSINEIEGYYEDLGGVATRAVFEWDPSTDRHMFRGMNNSYILEEKIAKTAGLVDTSLIYNELFRRARILKDLADQKILDYYQVYEKIKEFYEGALANGY”, the “soluble on expression in E. coli” value is reported as “not soluble”. For “MGSSHHHHHHMTLNQPEYFTKYENLHFHRDENGILEVRMHTNGSSLVFTGKTHREFPDAFYDISRDRDNRVVILTGSGDAWMAEIDFPSLGDVTNPREWDKTYWEGKKVLQNLLDIEVPVISAVNGAALLHSEYILTTDIILASENTVFQDMPHLNAGIVPGDGVHILWPLALGLYRGRYFLFTQEKLTAQQAYELNVVHEVLPQSKLMERAWEIARTLAKQPTLNLRYTRVALTQRLKRLVNEGIGYGLALEGITATDLRNN”, the “soluble on expression in E. coli” value was “soluble”. With “MGSDKIHHHHHHMYVAVKGGEKAIRAAHALQEQKRRGDGRLPELSVEQIGDQLSLAVDRVMTEGGIADRELAALALKQASGDNIEAIFLLRAYRTTLPRLAVSEPINTAEMRLERRISAVYKDIPGGQLLGPTYDYTHRLLDFTLLANGEAPSVQQADGEAEPTPHVFSLLTQQGLAKTEEDRGTPPDDITRTPPVYPCSRSSRLQQLMRGDEGYLLALAYSTQRGYGRNHPFAGEIRSGYVQVEIVPEELGFSVNIGELLLTECEMVNGFVAPQEEPPHFTRGYGLTFGMSERKAMAMALVDRALQAPDYDEEIAGPAQDEEFVLAHADNVEAAGFVSHLKLPHYVDFQAELALLKRLQRENERG” the “soluble on expression in E. coli” value was “not soluble”. For “MAMLGDQSFAAVKRDVPVDPDRQANDYVRCVADAVTREVGGSWEVVLFRQDSPNAFALPGGKIGVHTGMLRIARNQDQLATVLAHEVAHVLSRHANERLSQQVAVQQGLNAMQALADPSSSSGKTLMGLLGLGAQYGILMPYSRTQESEADLLGLDLMARAGFDPRQSIELWNNMANSGGGQPIEFLSTHPSHATRMQDLAKRMPRALDLQRQAAAQGHRPQCDGIRAGGGLEHHHHHH”, the “soluble on expression in E. coli” value was “not soluble”. In the case of “SKGKLGEKISQFKIVEELKAKGLYAYFRPIQSKQDTEVKIDGRRVLMFGSNSYLGLTTDTRIIKAAQDALEKYGTGCAGSRFLNGTLDIHVELEEKLSAYVGKEAAILFSTGFQSNLGPLSCLMGRNDYILLDERDHASIIDGSRLSFSKVIKYGHNNMEDLRAKLSRLPEDSAKLICTDGIFSMEGDIVNLPELTSIANEFDAAVMVDDAHSLGVIGHKGAGTASHFGLNDDVDLIMGTFSKSLASLGGFVAGDADVIDFLKHNARSVMFSASMTPASVASTLKALEIIQNEPEHIEKLWKNTDYAKAQLLDHGFDLGATESPILPIFIRSNEKTFWVTKMLQDDGVFVNPVVSPAVPAEESLIRFSLMATHTYDQIDEAIEKMVKVFKQAEVETLI”, the “soluble on expression in E. coli” value is reported as “soluble”. For “MESIEQQLTELRTTLRHHEYLYHVMDAPEIPDAEYDRLMRELRELETKHPELITPDSPTQRVGAAPLAAFSQIRHEVPMLSLDNVFDEESFLAFNKRVQDRLKNNEKVTWCCELKLDGLAVSILYENGVLVSAATRGDGTTGEDITSNVRTIRAIPLKLHGENIPARLEVRGEVFLPQAGFEKINEDARRTGGKVFANPRNAAAGSLRQLDPRITAKRPLTFFCYGVGVLEGGELPDTHLGRLLQFKKWGLPVSDRVTLCESAEEVLAFYHKVEEDRPTLGFDIDGVVIKVNSLAQQEQLGFVARAPRWAVAFKFPAQEQMTFVRDVEFQVGRTGAITPVARLEPVHVAGVLVSNATLHNADEIERLGLRIGDKVVIRRAGDVIPQVVNVVLSERPEDTREVVFPTHCPVCGSDVERVEGEAVARCTGGLICGAQRKESLKHFVSRRAMDVDGMGDKIIDQLVEKEYVHTPADLFKLTAGKLTGLERMGPKSAQNVVNALEKAKETTFARFLYALGIREVGEATAAGLAAYFGTLEALEAASIEELQKVPDVGIVVASHVHNFFAEESNRNVISELLAEGVHWPAPIVINAEEIDSPFAGKTVVLTGSLSQMSRDDAKARLVELGAKVAGSVSKKTDLVIAGEAAGSKLAKAQELGIEVIDEAEMLRLLGS”, the “soluble on expression in E. coli” value was “soluble”.
